In patent US20090291890A1 (published 2009):
Where a chain is given by its changes, count along the chain named. In names and notes the source's numbering stands. Blank lines part the entries; values can stand above or below the binder they belong to.

Target: Factor X (FX) (Homo sapiens (Human)) (UniProt P00742)
Sequence (P00742 41-488 limits assumed): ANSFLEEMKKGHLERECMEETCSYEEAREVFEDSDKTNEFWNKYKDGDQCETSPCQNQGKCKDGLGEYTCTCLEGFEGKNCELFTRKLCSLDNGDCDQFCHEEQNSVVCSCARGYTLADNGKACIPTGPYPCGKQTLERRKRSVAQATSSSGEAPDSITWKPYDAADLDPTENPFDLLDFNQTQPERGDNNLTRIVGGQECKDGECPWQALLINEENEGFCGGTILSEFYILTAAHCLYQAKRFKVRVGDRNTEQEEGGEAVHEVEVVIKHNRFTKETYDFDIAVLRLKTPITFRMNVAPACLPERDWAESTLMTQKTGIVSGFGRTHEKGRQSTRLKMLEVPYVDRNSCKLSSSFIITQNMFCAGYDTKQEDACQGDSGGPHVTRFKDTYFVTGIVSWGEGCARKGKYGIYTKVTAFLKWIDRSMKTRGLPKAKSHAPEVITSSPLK

B1: FVIIa variant H216A/H257A (enzyme)
chain: ANAFLEELRPGSLERECKEEQCSFEEAREIFKDAERTKLFWISYSDGDQCASSPCQNGGSCKDQLQSYICFCLPAFEGRNCETHKDDQLICVNENGGCEQYCSDHTGTKRSCRCHEGYSLLADGVSCTPTVEYPCGKIPILEKRNASKPQGRIVGGKVCPKGECPWQVLLLVNGAQLCGGTLINTIWVVSAAHCFDKIKNWRNLIAVLGEHDLSEADGDEQSRRVAQVIIPSTYVPGTTNHDIALLRLHQPVVLTDAVVPLCLPERTFSERTLAFVRFSLVSGWGQLLDRGATALELMVLNVPRLMTQDCLQQSRKVGDSPNITEYMFCAGYSDGSKDSCKGDSGGPHATHYRGTWYLTGIVSWGQGCATVGHFGVYTRVSQYIEWLQKLMRSEPRPGVLLRAPFP
kcat/KM, TF-Dependent Indirect Assay: 6.62e+07 M⁻¹ s⁻¹

B3: FVIIa variant A51N (enzyme)
chain: B1 chain with A51N, A216H, A257H
kcat/KM, TF-Dependent Indirect Assay: 1.02e+08 M⁻¹ s⁻¹

B4: FVIIa variant Q286R/H373F (enzyme)
chain: B1 chain with A216H, A257H, Q286R, H373F
kcat/KM, TF-Dependent Indirect Assay: 9.08e+07 M⁻¹ s⁻¹

B5: FVIIa variant Q286R/K341D (enzyme)
chain: B1 chain with A216H, A257H, Q286R, K341D
kcat/KM, TF-Dependent Indirect Assay: 1.11e+07 M⁻¹ s⁻¹

B7: FVIIa variant H257S/Q286R (enzyme)
chain: B1 chain with A216H, A257S, Q286R
kcat/KM, TF-Dependent Indirect Assay: 3.93e+07 M⁻¹ s⁻¹

B11: FVIIa variant H257S/Q286R/Q366V (enzyme)
chain: B1 chain with A216H, A257S, Q286R, Q366V
kcat/KM, TF-Dependent Indirect Assay: 1.58e+08 M⁻¹ s⁻¹

B13: FVIIa variant H257S/Q366V (enzyme)
chain: B1 chain with A216H, A257S, Q366V
kcat/KM, TF-Dependent Indirect Assay: 6.71e+07 M⁻¹ s⁻¹

B15: FVIIa variant Q286R/M298Q/Q366D (enzyme)
chain: B1 chain with A216H, A257H, Q286R, M298Q, Q366D
kcat/KM, TF-Dependent Indirect Assay: 1.91e+07 M⁻¹ s⁻¹

B16: FVIIa variant M298Q/H373F (enzyme)
chain: B1 chain with A216H, A257H, M298Q, H373F
kcat/KM, TF-Dependent Indirect Assay: 8.49e+07 M⁻¹ s⁻¹

B17: FVIIa variant Q286R/M298Q/H373F (enzyme)
chain: B1 chain with A216H, A257H, Q286R, M298Q, H373F
kcat/KM, TF-Dependent Indirect Assay: 1.51e+08 M⁻¹ s⁻¹

B18: FVIIa variant H216A/S222A (enzyme)
chain: B1 chain with S222A, A257H
kcat/KM, TF-Dependent Indirect Assay: 5.46e+07 M⁻¹ s⁻¹

B19: FVIIa variant Q286R/M298Q/K341D (enzyme)
chain: B1 chain with A216H, A257H, Q286R, M298Q, K341D
kcat/KM, TF-Dependent Indirect Assay: 1.18e+07 M⁻¹ s⁻¹

B20: FVIIa variant Q286R/H373A (enzyme)
chain: B1 chain with A216H, A257H, Q286R, H373A
kcat/KM, TF-Dependent Indirect Assay: 5.89e+07 M⁻¹ s⁻¹

Second part, the binder after the results:

kcat/KM, TF-Dependent Indirect Assay: 1.04e+08 M⁻¹ s⁻¹
B2: FVIIa variant Q286R/M298Q/Q366N (enzyme)
chain: B1 chain with A216H, A257H, Q286R, M298Q, Q366N

kcat/KM, TF-Dependent Indirect Assay: 1.84e+07 M⁻¹ s⁻¹
B6: FVIIa variant Q366V/H373V (enzyme)
chain: B1 chain with A216H, A257H, Q366V, H373V

kcat/KM, TF-Dependent Indirect Assay: 1.53e+07 M⁻¹ s⁻¹
B8: FVIIa variant Q286R/Q366D (enzyme)
chain: B1 chain with A216H, A257H, Q286R, Q366D

kcat/KM, TF-Dependent Indirect Assay: 3.64e+07 M⁻¹ s⁻¹
B9: FVIIa variant S222A/H373A (enzyme)
chain: B1 chain with A216H, S222A, A257H, H373A

kcat/KM, TF-Dependent Indirect Assay: 1.86e+08 M⁻¹ s⁻¹
B10: FVIIa variant S222A/H257A/Q286R/Q366V (enzyme)
chain: B1 chain with A216H, S222A, Q286R, Q366V

kcat/KM, TF-Dependent Indirect Assay: 5.42e+07 M⁻¹ s⁻¹
B12: FVIIa variant Q286R/Q366N (enzyme)
chain: B1 chain with A216H, A257H, Q286R, Q366N

kcat/KM, TF-Dependent Indirect Assay: 3.07e+07 M⁻¹ s⁻¹
B14: FVIIa variant Q366V/H373L (enzyme)
chain: B1 chain with A216H, A257H, Q366V, H373L
